For three molecules, Kd results are on record in patent US20160290999A1 (SYSMEX, published 2016).

No end group written: not given here.

By Kd is commonly meant a measure of binding affinity in units of concentration. A high value points to lower affinity.

The target in assay [1] is T1, Human serum albumin (human, UniProt P02768 25-609).
T1 construct: Purchased protein used in solution; In the hydrothermal experiments it is heat-aggregated into an insoluble precipitate; also called HSA
Kind of assay: fluorescence titration of TMR-labelled peptide against HSA, Hill fit (Example 2, FIG. 6). The method, then: (§1) Each of the resulting mixtures was subjected to measurement with a spectrophotofluorometer [product name: F-7000, manufactured by Hitachi High-Technologies Corporation] and the fluorescence intensity with an excitation wavelength of 540 nm and a fluorescence wavelength of 580 nm (hereinafter, referred to as “fluorescence intensity A”) was measured.

The target in assay [2] is T1, Human serum albumin. The assay can be described thus: fluorescence titration of TMR-labelled peptide against HSA, Hill fit (as in Example 1). The method, then:
as §1

Assay [3] concerns the target T1, Human serum albumin. The assay can be described thus: Kd as classified from the fluorescence titration; told in Example 4 of the peptides of samples F and G.

B1: TMR-labeled SA21 (peptide)
peptide: DDEWLCGWRPLCIDEILR
modifications: cysteine pairing not given here; also: TMR label, site not given here
notes: The free text was followed; also called TMR-SA21; TMR-labeled SA1
With B1, the Kd with Human serum albumin [1] is < 500 µM.

B2: TMR-labeled ACTH (1-39) (peptide)
peptide: SYSMEHFRWGKPVGKKRRPVKVYPNAGENESAEAFPLEF
modifications: also: TMR label, site not given here
notes: The free text was followed; also called Adrenocorticotropic hormone (ACTH) (1-39)
As for B2, the dissociation constant Kd with Human serum albumin [2] was 520 µM.

For LVAASQAALGL (also: TMR label, site not given here) [TMR-labeled HSA 599-609 fragment], the Kd with Human serum albumin [3] was ≥ 500 µM.
